Laboratory results reported in paper PMC6136799, “The Npa1p complex chaperones the assembly of the earliest eukaryotic large ribosomal subunit precursor” (PLoS Genetics, 2018).

Assays:
GST-Npa1p = target: T1, GST-Npa1p (S. cerevisiae, UniProt P34241 1-1764); assay: pull-down; 2 μg GST-tagged protein on glutathione magnetic beads, 2 μg His-Dbp6p in 200 μl IP buffer (50 mM Tris-HCl pH 8, 150 mM potassium chloride, 5 mM magnesium chloride, 0.2% Nonidet P-40), 1 h at 16°C; Western with anti-His; also after RNase A treatment; settings: both partners purified
T1 construct: Npa1p, S. cerevisiae; NPA1 ORF inserted into XhoI-digested pGEX-6P1 (plasmid pRC59); source: E. coli Rosetta λDE3, purified (Glutathione Sepharose 4 FF)
T1 sequence (P34241 whole entry): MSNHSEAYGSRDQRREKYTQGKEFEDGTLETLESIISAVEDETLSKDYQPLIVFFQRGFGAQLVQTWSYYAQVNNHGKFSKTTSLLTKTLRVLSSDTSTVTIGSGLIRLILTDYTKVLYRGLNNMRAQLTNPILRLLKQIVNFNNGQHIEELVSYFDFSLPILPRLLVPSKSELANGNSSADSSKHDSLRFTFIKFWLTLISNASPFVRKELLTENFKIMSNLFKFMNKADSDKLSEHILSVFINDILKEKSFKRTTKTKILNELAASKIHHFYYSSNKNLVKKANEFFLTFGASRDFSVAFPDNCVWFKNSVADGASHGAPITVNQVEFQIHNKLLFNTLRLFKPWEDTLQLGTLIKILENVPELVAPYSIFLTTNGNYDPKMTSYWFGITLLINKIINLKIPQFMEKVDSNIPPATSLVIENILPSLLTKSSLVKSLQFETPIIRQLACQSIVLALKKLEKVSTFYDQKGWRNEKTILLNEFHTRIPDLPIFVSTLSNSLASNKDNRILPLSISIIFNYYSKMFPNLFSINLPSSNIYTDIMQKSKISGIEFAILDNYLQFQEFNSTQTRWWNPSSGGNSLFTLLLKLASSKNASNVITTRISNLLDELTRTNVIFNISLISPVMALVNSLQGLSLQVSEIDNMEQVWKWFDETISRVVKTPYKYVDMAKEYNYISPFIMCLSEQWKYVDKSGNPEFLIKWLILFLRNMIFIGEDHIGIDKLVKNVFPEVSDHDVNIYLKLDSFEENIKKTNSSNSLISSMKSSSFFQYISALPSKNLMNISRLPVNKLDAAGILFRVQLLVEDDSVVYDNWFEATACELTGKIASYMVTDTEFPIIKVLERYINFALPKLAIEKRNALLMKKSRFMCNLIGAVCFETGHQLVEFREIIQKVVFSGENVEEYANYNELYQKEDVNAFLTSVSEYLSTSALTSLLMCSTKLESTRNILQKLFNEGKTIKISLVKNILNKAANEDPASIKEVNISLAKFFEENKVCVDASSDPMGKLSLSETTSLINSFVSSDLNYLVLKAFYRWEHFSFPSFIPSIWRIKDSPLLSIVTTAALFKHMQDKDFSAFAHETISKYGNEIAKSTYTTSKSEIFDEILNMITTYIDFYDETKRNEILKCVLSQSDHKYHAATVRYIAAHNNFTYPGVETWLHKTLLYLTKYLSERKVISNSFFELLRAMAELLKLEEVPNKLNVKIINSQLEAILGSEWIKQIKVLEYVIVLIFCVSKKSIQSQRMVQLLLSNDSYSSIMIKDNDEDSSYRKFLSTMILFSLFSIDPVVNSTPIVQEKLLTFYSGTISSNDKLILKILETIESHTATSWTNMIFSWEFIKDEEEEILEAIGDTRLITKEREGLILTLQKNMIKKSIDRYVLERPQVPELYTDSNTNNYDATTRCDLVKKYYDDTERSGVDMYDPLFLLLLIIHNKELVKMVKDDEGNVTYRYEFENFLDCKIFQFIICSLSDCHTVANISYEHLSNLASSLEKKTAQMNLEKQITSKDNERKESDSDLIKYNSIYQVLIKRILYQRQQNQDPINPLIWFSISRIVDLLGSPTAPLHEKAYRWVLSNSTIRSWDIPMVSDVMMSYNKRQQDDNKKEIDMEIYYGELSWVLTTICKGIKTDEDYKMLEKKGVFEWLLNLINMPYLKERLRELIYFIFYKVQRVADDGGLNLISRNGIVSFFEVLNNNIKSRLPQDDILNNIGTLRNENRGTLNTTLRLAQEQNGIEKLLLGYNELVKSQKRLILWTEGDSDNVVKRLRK

GST-Npa2p = target: T2, GST-Npa2p (S. cerevisiae, UniProt P47108 1-1174); assay: as above; settings: both partners purified
T2 construct: Npa2p, S. cerevisiae; NPA2 ORF inserted into XhoI-digested pGEX-6P1 (plasmid pRC58); source: E. coli Rosetta λDE3, purified (Glutathione Sepharose 4 FF)
T2 sequence (looked up): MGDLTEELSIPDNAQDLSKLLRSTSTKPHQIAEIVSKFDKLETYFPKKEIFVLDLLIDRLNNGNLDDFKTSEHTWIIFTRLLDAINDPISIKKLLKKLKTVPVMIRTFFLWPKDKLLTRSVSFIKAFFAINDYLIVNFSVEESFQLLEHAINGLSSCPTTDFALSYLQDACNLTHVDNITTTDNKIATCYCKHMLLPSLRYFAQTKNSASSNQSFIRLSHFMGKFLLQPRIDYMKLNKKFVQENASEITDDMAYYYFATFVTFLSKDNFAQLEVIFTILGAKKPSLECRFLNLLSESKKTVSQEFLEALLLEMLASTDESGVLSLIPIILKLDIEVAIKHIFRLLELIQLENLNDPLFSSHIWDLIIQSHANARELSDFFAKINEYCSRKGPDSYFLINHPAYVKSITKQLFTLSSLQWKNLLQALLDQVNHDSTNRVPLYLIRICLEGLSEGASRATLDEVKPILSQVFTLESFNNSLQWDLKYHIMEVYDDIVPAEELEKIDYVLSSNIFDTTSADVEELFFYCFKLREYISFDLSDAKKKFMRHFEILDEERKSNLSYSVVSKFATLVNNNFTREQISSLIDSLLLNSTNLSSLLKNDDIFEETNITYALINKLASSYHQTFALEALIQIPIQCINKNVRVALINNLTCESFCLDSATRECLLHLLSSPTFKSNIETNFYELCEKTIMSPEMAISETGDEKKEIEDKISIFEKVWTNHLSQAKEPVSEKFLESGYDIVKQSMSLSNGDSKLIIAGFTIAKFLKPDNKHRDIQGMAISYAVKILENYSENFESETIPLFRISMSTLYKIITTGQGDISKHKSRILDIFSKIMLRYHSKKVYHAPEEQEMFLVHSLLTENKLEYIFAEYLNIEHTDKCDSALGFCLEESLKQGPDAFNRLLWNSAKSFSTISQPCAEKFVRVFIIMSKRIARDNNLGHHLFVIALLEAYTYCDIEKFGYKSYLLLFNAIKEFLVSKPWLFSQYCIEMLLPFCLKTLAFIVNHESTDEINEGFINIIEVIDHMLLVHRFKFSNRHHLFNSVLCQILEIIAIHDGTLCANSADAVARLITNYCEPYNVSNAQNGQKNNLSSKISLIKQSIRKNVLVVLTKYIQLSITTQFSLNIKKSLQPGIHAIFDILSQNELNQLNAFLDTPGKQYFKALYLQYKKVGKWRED

binding result (GST-Npa1p): binds
binding result (GST-Npa2p): binds
B1: His-Dbp6p (natural protein, S. cerevisiae, UniProt P53734 1-629, looked up)
chain: MFASRFDPSQLTAPAASAPEGIVGTTPPAIVPLKRQATESDNEEYGSHQDSDESSNSSSEEDEDRMQVDYGASEEDSSEVEEEESKPSTHSTVLSRFKQTVSLQERLGASDIAESKEDEGIEDEAASTHQLKQIPQPEFVKNPMNLNTNSLQFKSTGWLNTEKIYYDNSLIKPFSDYANELEAKLLQNICKNFSTNTFPIQSIILDSILPVLNFTLNVSKRNFTRRIGDILVNAATGSGKTLAYSIPIVQTLFKRQINRLRCIIIVPTKLLINQVYTTLTKLTQGTSLIVSIAKLENSLKDEHKKLSNLEPDILITTPGRLVDHLNMKSINLKNLKFLIIDEADRLLNQSFQGWCPKLMSHLKTDKLDTLPGNVIKMIFSATLTTNTEKLNGLNLYKPKLFLKQTDKLYQLPNKLNEFNINIPTAKSVYKPLILLYSICQFMAHSPIAAKILIFVKSNESSIRLSKLLQLICESRSQSSVLKNLQNLAVSINSVNSNNSKAENKKIVANFSHHSESAGITILITTDIMSRGIDINDITQVINYDPPMSSQQYVHRVGRTARANELGSAYNLLVGRGERTFFDDLNKDLDRDGKSVQPLELDFTLLESDSELYTSSLESLKNYHNNTAQA
notes: Dbp6p, S. cerevisiae; DBP6 ORF cloned into a modified pET-15b (plasmid pET-DBP6); also called His-tagged Dbp6p; source: E. coli Rosetta λDE3, purified (HisTrap FF, Superdex 200)
